Earlier results, collected in article PMC7642319.

Target: NbpSH3 SH3 (Saccharomyces cerevisiae) (UniProt Q12163)
Sequence (Q12163 107-174): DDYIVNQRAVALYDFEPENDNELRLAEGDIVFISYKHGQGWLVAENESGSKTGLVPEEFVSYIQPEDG

Chain of Ste20 (Q03497 2-939): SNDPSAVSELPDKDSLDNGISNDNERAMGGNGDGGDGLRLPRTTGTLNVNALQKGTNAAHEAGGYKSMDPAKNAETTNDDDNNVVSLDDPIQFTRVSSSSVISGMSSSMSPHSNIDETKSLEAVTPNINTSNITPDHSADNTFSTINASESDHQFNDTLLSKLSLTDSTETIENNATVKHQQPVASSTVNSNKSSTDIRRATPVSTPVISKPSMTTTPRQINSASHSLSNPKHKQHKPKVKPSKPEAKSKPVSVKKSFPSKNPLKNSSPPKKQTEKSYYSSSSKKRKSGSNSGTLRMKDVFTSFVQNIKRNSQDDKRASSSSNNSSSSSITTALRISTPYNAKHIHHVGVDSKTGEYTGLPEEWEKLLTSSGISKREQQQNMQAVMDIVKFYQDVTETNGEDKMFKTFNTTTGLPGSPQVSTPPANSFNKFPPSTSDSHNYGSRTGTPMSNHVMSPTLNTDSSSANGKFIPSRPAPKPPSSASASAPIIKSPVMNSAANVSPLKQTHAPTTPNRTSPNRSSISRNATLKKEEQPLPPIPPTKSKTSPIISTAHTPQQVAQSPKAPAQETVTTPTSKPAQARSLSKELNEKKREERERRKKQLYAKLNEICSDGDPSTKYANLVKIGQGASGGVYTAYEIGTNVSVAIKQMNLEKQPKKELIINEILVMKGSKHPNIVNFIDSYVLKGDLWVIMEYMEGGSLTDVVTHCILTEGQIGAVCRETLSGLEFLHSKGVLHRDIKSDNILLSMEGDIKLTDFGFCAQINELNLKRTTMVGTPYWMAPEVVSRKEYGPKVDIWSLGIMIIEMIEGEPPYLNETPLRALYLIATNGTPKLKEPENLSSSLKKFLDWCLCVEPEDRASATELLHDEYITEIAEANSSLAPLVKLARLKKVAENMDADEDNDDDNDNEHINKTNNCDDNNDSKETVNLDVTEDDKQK

Ste20 (from UniProt Q03497)
Kd: 200 nM
